Patent publication US20140010756A1 (KAGOSHIMA UNIVERSITY, published 2014)

Molecular target: T1, human folate receptor β (FRβ) (human, UniProt P14207 23-230)
T1 construct: Expressed on mouse B300-19 cells from cDNA cloned from human rheumatoid synovial membrane; also called human FRβ
Test: hybridoma antibodies selected by reactivity with FRβ-expressing cells (human FRβ on mouse B300-19 cells); reactivity analysed by flow cytometry

T1 sequence (P14207 23-230 S117T limits assumed): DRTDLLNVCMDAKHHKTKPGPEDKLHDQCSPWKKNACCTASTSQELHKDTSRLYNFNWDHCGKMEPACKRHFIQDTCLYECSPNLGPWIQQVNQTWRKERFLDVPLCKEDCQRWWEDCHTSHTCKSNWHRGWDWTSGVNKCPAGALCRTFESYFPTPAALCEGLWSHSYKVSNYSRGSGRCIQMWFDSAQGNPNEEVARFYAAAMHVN

B1: anti-human FRβ mouse monoclonal antibody 36b (antibody, mouse IgG2a, V domains shown)
VH: QVQLQQSGAELMKPGASLKISCKATGYTFSSYWIEWVKQRPGHGLQWIGEILPGSGSSNYNEKFKGKATFTADTSSNTAYMQLSSLTSEDSAVYYCARRGSSGSYFAMDYWGQGTSVTVSS
VL: DIQMTQSSSSFSVSLGDRVTITCKASEDIYNRLAWYQQKPGNAPRLLISGATSLETGVPLRFSGSGSGKDYTLSITSLQTEDIATYYCQQYWSTPWTFGGGTKLEIKK
notes: also called Clone 36b
- binding result: binds
